From the DeepSol protein solubility set

Experiment: soluble on expression in E. coli; label from the status in PepcDB or PDB records

Row | Sequence | soluble on expression in E. coli
1 | ADMEVIELNKCTSGQSFEVILKPPSFDGVPEFNASLPRRRDPSLEEIQKKLEAAEERRKYQEAELLKHLAEKREHEREVIQKAIEENNNFIKMAKEKLAQKMESNKENREAHLAAMLERLQEKDKHAEEVRKNKELKEEASR | soluble
2 | MGSDKIHHHHHHMSAPPLCVTVCGGGRTGHLNAILFAQRPGVRVKLLTRNHHIAARQDAVLTGLLPDGATLTASAGMVTDDPAVALRDADIVIITVPAHARPSLLREIVAHLPEGKAVYVGAIPGFCGFDWLAGALLAQRPNAVIWGMKDVPHTAFALDPGVSVRMGGVKQRLYVGCHAREQRAARQALLSHLNRLYDASVELLDSYLEITLTPGNPIMHSAVIYGLIGPYGQWHGRALPTPLCWWTDCPELSAYFLERADEESQRLCQAVARRLGVDLSSVKPLRQEIVDAYGDQIQDPSTMLSVLRTNRAYADIEAPLVPTSGGYLVDTSSRAFHEDVAYGLATLVEMARRLGVDTPHLREIFEWNVTYMGGLRGSALDYFPEFWPR | not soluble
3 | MGHHHHHHSHMANSAGSMANSAGSMATLSDFFPEADPVLEKNYRRCVDLAINMSWSVPGQFKLVETPINSFLLVGDVLPNDMIESKPVNSTNLVNIPFPLSTLGVSTSKKSVEVTSYKSETEKFQEAASISEHSIRGSIVYEGLTWITAMGYNVTDFLVNMLEQMKCPENWSGLHPVDPLACVWLLYFGPKSRCSEIACVSELFIGKKGPILLPPHMYRGDTSVNSFAHHLCQYVKHLYADYEPEILSCPLDITRVKGCLSDLRQVAESCVFLSQRCLLCHLYKQNAAVSKNILTASDCIILGGSGKSLLGTYMKSYKDPATHDSILLPTYNLEAIVNYILEHYGHETAGQEINWE | not soluble
4 | MKSQPYTASSVTSTSTTHHPWMPISLREPPSKFQKLSTSDAAPLHNVCSSLKMKSTKPSRKRPSPKESDLPPLPSISTLFDSGSSSHSSSSSSNSSYGSYCQFSPEGSYTMYHWPMNYIPYVSPDVTITATTSTSTNAMASPDPIMLSSPPKQPTIEHTPINQPLFIQTADYPYDYSAPDPTGGYPSSATINANQLLLRPVPNGHV | not soluble
5 | MAHHHHHHMNKTKIESSYFTYQNNHSKIGNPILYKGEVIGMEIIDIRVKDDVEGLFNVCSCYLDNEHHAYNKCSESDIHYMQISSIRIIIKIVHNINILTGKKLHINLQDYVTPYPIKSAFIIKKVEHYSCNNINNKSFNEIQEHFYNNEKKLKFYNIFLYETDLQEFKEDIIFENPGMYLLCYTSNDSQSEYSAELSTILVNGNY | not soluble
6 | MGSDKIHHHHHHVTEPLKFQWCDRLGDLPREDWNAIAQPLATPFLEWDWLHDLEASGSVIAKAGWQPCHLVVWRGDRLVAAAPLYLKGHSYGEFVFDQQWADLAGRLGLRYYPKLLGMTPLTPAVGYRFLIAPAEDEATLTGLMLREIDRFCDNNQILSCNFLYVDPDWQPLVEAAGYSAWQHHNSVWQNRGFRTFDDYLGMFNANQRRNIKREVKSMERAGLTLTCLSGDQIPRDYFPLMYRFYSDHCDKFGWWGSKYLTRDFFDRAMHHSRHRLLFVAATPEGSDRPIAMSFCVHKGDRLYGRYWGCDHEIDNLHFNVCYYKPIEWAIANGIQSFDPGAGGSHKKRRGFPATPNWSLHRWYQPRFGQILGTWLRQVNELESQEIEAINAELPFSRPEVPLN | not soluble
7 | MTEPTVARPDIDPVLKMLLDTFPVTFTAADGVEVARARLRQLKTPPELLPELRIEERTVGYDGLTDIPVRVYWPPVVRDNLPVVVYYHGGGWSLGGLDTHDPVARAHAVGAQAIVVSVDYRLAPEHPYPAGIDDSWAALRWVGENAAELGGDPSRIAVAGDSAGGNISAVMAQLARDVGGPPLVFQLLWYPTTMADLSLPSFTENADAPILDRDVIDAFLAWYVPGLDISDHTMLPTTLAPGNADLSGLPPAFIGTAEHDPLRDDGACYAELLTAAGVSVELSNEPTMVHGYVNFALVVPAAAEATGRGLAALKRALHA | soluble
8 | MRRYFGTDGVRGEAGKPPLTPEFVLKLGQAAGAYFLAQEKRPVVLLAKDTRESSDLLEAALAAGLMSQGVRVEHLGVLPTPGVAHLTKALKATAGAVISASHNPYQDNGIKFFGPTGEKLPDGAEEEIERLLLEDHPTRGIGTVGDFREAERMYLDFLLAHAPDLTGLKVGLDLAHGATYRIGPKLFQKAGAEVMAFFNTPDGRNINRGCGSTHPEALSRFVVELGLDLGIAFDGDGDRVQFIDRKGRLFHGDHVLYLAALAFGEKGVVGTVMSNMALEVALKERGLAFHRAAVGDRYVLEKLKETGLALGGEPSGHVIFLRHHTTGDGLLTALLTLKALKALGGDLADWYEALPLYPQVLLNVRVSDKAKVMADPRLGEAVREAEARLGGRGRVNVRPSGTEPVVRVMVEAEEGAEEVARELAERVRALSQEAQAV | soluble
9 | MSLDETPTIHILWINAGLSCDGDSVALTAAMQPSIEEIVLGVLPGLPKIAVHWPLIDFECGPVGGSDTFIEWFFKGERGEIDPFVLVVEGSIPNESIKPEGYWCGFGDNPETGQPITTSEWIDRLAPKALAVVAIGTCATYGGIHAMAGNPTGAMGVPDYLGWDWKSQAGIPIVCVPGCPIQPDNFSETLTYLLYQAAGAAPMIPLDDKLRPTWLFGATVHEGCDRAGYYEQGQFALTYDSPKCLVKLGCWGPVVKCNVPKRGWMNGIGGCPNVGGICIACTMPGFPDKFMPFMDEPPGAKVSSSASGAYGAVVRKLRTLTARTVDKEPKWRHTGDRITTGYREGHHHHHH | not soluble
10 | MGSDKIHHHHHHMVKVVKFGGSSLANAAQYQKVIEILRADPERRIVVVSAPGKRFKDDVKVTDLLIKYANASGENVKVARQAVLDRYQEIADAYHVSDSDFEQINVHLIDLANLHHANKACRLAHFKAAGERLNAILMALVLKKFNVTARFVDPKQLGIKAHGDYNNAILDQHSYAQIEAVCSNLLDEAEYLVVPGFYAYNQNGEVCTFSRGGSDITGAILARGFQAQLYENFTDVDSIYSADPKIIAQPHPIREMTYREMRELAYAGFSVFHDEAIIPAIEAQVPIVIKNTDHPNLPGTVIEPEQNYASDLEITGVASSSRFAALYIHKYLLNREVGFTLKLLKILYRYDISYEHMPSGIDDLTIIFNQNQITDEILPSLLSDIREELHTDQLEWIDDYAILMVVGEGMRDKVGVVDRIVNALARKQIGIQMINQGASRISTMLGVHQNQVNQAVREIYREFFKNKGRAD | not soluble
11 | ESTTVKMYEALPTGPGKEVGTVVISEAPGGLHFKVNMEKLTPGYHGFHVHENPSCAPGEKDGKIVPALAAGGHYDPGNTHHHLGPEGDGHMGDLPRLSANADGKVSETVVAPHLKKLAEIKQRSLMVHVGGDNYSDKPEPLGGGGARFACGVIE | soluble
12 | MKFIIEALKRVRERRPLVHNITNFVVMNTTANALLALGASPVMAHAEEELEEMIRLADAVVINIGTLDSGWRRSMVKATEIANELGKPIVLDPVGAGATKFRTRVSLEILSRGVDVLKGNFGEISALLGEEGKTRGVDSLEYGEEEAKKLTMNAAREFNTTVAVTGAVDYVSDGRRTFAVYNGHELLGRVTGTGCMVAALTGAFVAVTEPLKATTSALVTFGIAAEKAYEEAKYPGSFHVKLYDWLYRINENVIRTYAKVREVEL | soluble
13 | MAHHHHHHMRSFMYMCRQVQGARFIQITRSRCGRTIPYKLADIGEGIKEVEVVTLYVKPGDRIGEFEKICEVQSDKATVEITSRYAGVITTVHIEAGEKAHVGEPIVDIEVNDTDETQKPSCGTVDCNVSDQFNNGGVPVAEEGDSCAADCTTEISKDFTKVLATPAVREFARSRGVNITDVKGTGKDGRVLREDVLSYAGKSCYNDDVVVRLDTGLRKAMVSSMTKAGSVPSFTACDEVEVSQLLNFQHILRDALNSSSEGVRDGSKVSLMPLFIKAASQSLLQYPELNAHVSSECDKLFVKKAHHIGFAMDTPKGLVVPVVRDVQQKSVAELVHEVNELVTLGRKSQIPPDRMKDGTFTLSNIGPIGAIYATPMLNPPQVAIGAIGRIQQLPRFDASGNVVRANILAMSWTADHRVIDGATLVRFSNAFKRCLESPGLLIAGEVA | not soluble
14 | SLCDKIFHNLSGKTLVATPYVITKGIYHKSLIYMLSHTEEGAIGLIFNRLVNHVDLKSFFKIKEDKITSQVIVPIYLGGPIEHEKGFFLHSRDYNKNLLLDFHNDLAVSSNLEISEDIAFGQGPKNSLFIVGYTAWKPGQLEEELEKNLWLVMDCNKEFIFADNPENKWHNALKHLGIDEMYFSSQIGNA | soluble
15 | MKKQSCSHTTEDVPFPQANRRKFLQLAALGSSIGLFSVVSGISEARAEKKAGTLLLSCMDYRLMDEIERYMLRRGLYHNYDHIVLAGASLGAVTDKYPAWSRTFWDHLDLAVNLHEIHTVMVMDHRDCGAYKILLGEDYSKDTDRETAEHTIKLTQLKDMINKKYPKIEVETLLMGLNGEVEAIPTAVAKQG | not soluble
16 | MSLKNQIEKLLENFVPEGQQEKTDFKVFQDFAADEKNLNRSSIAHFTASVFVLNESHDKILGIYHKIYQSWGWVGGHADGNADLLAVAVKEVQEETGLRSFKKLSEMPISIEALPVFGHHHRKYGYVSAHIHLNVTFLFEAKESDSLQKNTDETGGLAWIPLEKFSEKSSEKEMRVIYDKIITRIINKEGHHHHHH | soluble
17 | MMSYALVLAGNRLITSGALGTNAAAIRGAMRADPNLLTVILPQSLERQPRESRQQLDKVMHLVEKPENDHLPLAEASSLCNQEIIARCQQLICFAFHDSHTLLQTCELAEEQHKVVTLFYFDLEHHHHHH | not soluble
18 | AHHHHHHGSYRIKDEWGEFLVRLARRAIEEYLRTGREIEPPKDIPPELWEKMGVFVTLNRHNVPPQAALRGCIGFPLPIYPLVKATIKAAIYAAVDDPRFPPVKLEEMNNIVVEVSVLTPPELIEGPPEERPKKIKVGRDGLIVEKGIYTGLLLPQVAVEWGWDEEEFLAETCWKAGLPPDCWLDEDTKVYKFTAEIFEEEYPRGPVKRKPLIPQSQD | soluble
19 | SLSSKDKDTVKALWGKIADKAEEIGSDALSRMLAVYPQTKTYFSHWKDLSPGSAPVNKHGKTIMGGIVDAVASIDDLNAGLLALSELHAFTLRVDPANFKILSHCILVLLAVKFPKDFTPEVHISYDKFFSALARALAEKYR | soluble
20 | SNTRNFVLRDEDGNEHGVFTGKQPRQAALKAANRGSGTKANPDIIRLRERGTKKVHVFKAWKEIVDAPKNRPAWMPEKISKPFVKKERIEKLE | soluble
21 | MGHHHHHHSHMLAQPEPLVWVSKWVDYSNKFGFGYQLSSRRVAVLFNDGTHMALSANRKTVHYNPTSTKHFSFSVGAVPRALQPQLGILRYFASYMEQHLMKGGDLPSVEEVEVPAPPLLLQWVKTDQALLMLFSDGTVQVNFYGDHTKLILSGWEPLLVTFVARNRSACTYLASHLRQLGCSPDLRQRLRYALRLLRDRSPA | not soluble
22 | MGSDKIHHHHHHMISASTLNSELINKIAQDFAQATSLAVVVVNIHGDEISELFNFTPFCQLMRQHPEHSGRCRMSDRCGGLEASKKDQLCIYRCHAGLTDFSIPLVIAGHLVGFVLCGQVRLSNDVELVDILNVDDRWQDDPALVQAFRDVPEMDYSRVIASADLLKLIVENCLKKQLNFVVIKDNPSQNDPAQASRAPSPHDGKMKKALRYIDAHLSDELRLEDVAAHVYLSPYYFSKLFKKYQGIGFNAWVNQQRMASAKELLCHSDWSIASIARNLGFSQTSYFCKVFRQTYQVTPQAFRQQINAGSQTESF | not soluble
23 | MIEVISATALATVQDLGRHGSLGYGVGTSGAMDTLSLRLGNLLLGNAEDAAGIEIPLFPFEVRFVEDCTFAITGAACSAKLDGGRLPGNWAAQARKGQVLKLSYPTTGSRAYLCLAGGVDVPPVLGSRSTQLRGAFGGWQGRALQQGDVIPAGAANQQRAGDFGLESAVAGLPLMLDGLPAIRVLPAAEFDCFSVEAQDTFFAGEWKITTQSNRYGYRMEGTPLLAREALEIRSHGIVPGVIQVPHGGQPIVQMRDAQPSGGYPKFATVIEADLWRLGQAPIGSKVRFVQCSYEQAIEALDTNHAFIEDARRLLALRGLQGHRLEHHHHHH | not soluble
